According to US20040038338A1, “Influence of LRP cytoplasmic domain on Abeta production” (priority 2001, published 2004):
Residue numbers refer to the chain shown, from its start.

T1: Fe65 (UniProt O00213 1-710, limits assumed)
T1 construct: also called Fe65 adaptor protein; in vitro translated Fe65
T1 sequence (looked up): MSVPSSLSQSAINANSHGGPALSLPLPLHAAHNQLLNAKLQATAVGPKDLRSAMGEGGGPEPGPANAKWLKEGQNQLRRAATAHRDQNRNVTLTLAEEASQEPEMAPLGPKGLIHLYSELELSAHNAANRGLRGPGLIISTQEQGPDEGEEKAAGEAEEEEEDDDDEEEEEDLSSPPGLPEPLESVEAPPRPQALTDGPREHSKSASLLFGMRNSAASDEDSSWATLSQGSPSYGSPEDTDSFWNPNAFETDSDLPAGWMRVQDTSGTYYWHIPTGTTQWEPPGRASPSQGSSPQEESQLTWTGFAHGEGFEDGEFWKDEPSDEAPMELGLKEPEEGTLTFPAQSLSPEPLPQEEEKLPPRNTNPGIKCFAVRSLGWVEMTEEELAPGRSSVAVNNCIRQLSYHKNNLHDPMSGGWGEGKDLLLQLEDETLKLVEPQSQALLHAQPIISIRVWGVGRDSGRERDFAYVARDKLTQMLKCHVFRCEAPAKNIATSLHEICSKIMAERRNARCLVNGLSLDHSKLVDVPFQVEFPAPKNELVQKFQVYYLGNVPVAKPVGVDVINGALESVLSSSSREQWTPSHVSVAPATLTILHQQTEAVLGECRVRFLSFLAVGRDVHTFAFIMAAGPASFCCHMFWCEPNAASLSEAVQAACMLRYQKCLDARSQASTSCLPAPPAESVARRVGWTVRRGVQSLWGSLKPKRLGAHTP

B1: GST fusion protein of the LRP cytoplasmic tail with a single alanine substitution at L of the YATL motif (other, not shown: a dimerising Fc or GST; small tags and cut ends)
chain: KRRVQGAKGFQHQRMTNGAMNVEIGNPTYKMYEGGEPDDVGGLLDADFALDPDKPTNFTNPVYATAYMGGHGSRHSLASTDEKRELLGRGPEDEIGDPLA
modifications: N-terminal GST fusion, not carried in the letters
notes: Position 4510 is derived from the motif's printed limits (4504 to 4510)
B2: GST fusion protein of the LRP cytoplasmic tail with a single alanine substitution at N of the second NPXY motif (other, not shown: a dimerising Fc or GST; small tags and cut ends)
chain: B1 chain with N60A, A66L
modifications: N-terminal GST fusion, not carried in the letters
notes: Position 4504 is derived from the motif's printed limits (4504 to 4510)
B3: GST fusion protein of the LRP cytoplasmic tail with a single alanine substitution at Y of the second NPXY motif (other, not shown: a dimerising Fc or GST; small tags and cut ends)
chain: B1 chain with Y63A, A66L
modifications: N-terminal GST fusion, not carried in the letters
B4: RAP: 39 kDa receptor associated protein, an LRP chaperone molecule that blocks binding of all known LRP ligands (protein, UniProt P30533 35-357, looked up)
Alpha-2-macroglobulin …: YSREKNQPKPSPKRESGEEFRMEKLNQLWEKAQRLHLPPVRLAELHADLKIQERDELAWKKLKLDGLDEDGEKEARLIRNLNVILAKYGLDGKKDARQVTSNSLSGTQEDGLDDPRLEKLWHKAKTSGKFSGEELDKLWREFLHHKEKVHEYNVLLETLSRTEEIHENVISPSDLSDIKGSVLHSRHTELKEKLRSINQGLDRLRRVSHQGYSTEAEFEEPRVIDLWDLAQSANLTDKELEAFREELKHFEAKIEKHNHYQKQLEIAHEKLRHAESVGDGERVSRSREKHALLEGRTKELGYTVKKHLQDLSGRISRARHNEL
B5: Fe65: cytosolic adaptor protein with separate binding domains (PID1, PID2) for LRP and APP, overexpressed in cells (protein)
chain: T1 sequence (looked up)

What was measured:
Fe65 = molecular target: T1, Fe65; experiment: GST pull down of in vitro translated Fe65
Aβ release = conditions: exogenous RAP, cells overexpressing APP751; cited from earlier work
APP processing = experiment: Overexpression of Fe65 in APP751-transfected CHO cells, APPs and Aβ; format: cell-based; conditions: preliminary studies
Source text: In the second set of experiments, Inventors determine whether overexpression of Fe65 impairs APP and LRP processing by acting as a dominant or competitive negative mutant. Inventors briefly mentioned the preliminary results above with APPs and Aβ when Fe65 was overexpressed in APP75 1-transfected CHO cells. These studies are repeated for reliable quantitation and other aspects of APP trafficking are examined, as performed in the earlier aims. Inventors also assess the binding and uptake of LRP ligands. To ascertain that these outcomes are due to inhibition by Fe65, Inventors overexpress Fe65 mutants that cannot bind either APP or LRP, i.e., ΔPID2 and ΔPID 1, respectively. If these mutant constructs mimic the results from full length Fe65 even though it cannot bind it's known substrate, then it supports the idea that Fe65 or Fe65L in excess behaves as an inhibitor. […] The premise is that an overabundance of Fe65 result in the failure to link up limiting amounts of LRP with APP. Thus, co-expression of Fe65 with LRP should greatly diminish the effects of Fe65 expressed by itself In the third set of experiments, Inventors test the concept that other APP and LRP interacting proteins with only single binding sites, such as mDab, X11/Mint-1 and JIP-1, compete for binding with Fe65 or Fe65L, and by displacing Fe65, produce a partial loss of function with respect to APP processing. […]

Molecule | reduction of binding against wild type LRP (Fe65) | also measured
B1 | > 50% | –
B2 | > 50% | –
B3 | > 50% | –
B4 | – | Aβ release (Aβ release): dramatically reduced
B5 | – | APPs secretion (APP processing): augmented; Aβ release (APP processing): reduction
